Measured values: patent US20230086210A1

How the values were obtained:
[1] = molecular target: human 4-1BB on Jurkat-hu4-1BB-NFκB-luc2 reporter cells (human) (UniProt Q07011); assay: cell-based or functional assay; design: unit not given beside the values
[2] = molecular target: human PD-L1 on MKN45-huPD-L1 cells (human) (UniProt Q9NZQ7); assay: flow cytometry on MKN45-huPD-L1 cells, area under the binding curve; design: unit not given beside the values
Chain of human PD-L1 on MKN45-huPD-L1 cells (human) (Q9NZQ7 19-290 limits assumed): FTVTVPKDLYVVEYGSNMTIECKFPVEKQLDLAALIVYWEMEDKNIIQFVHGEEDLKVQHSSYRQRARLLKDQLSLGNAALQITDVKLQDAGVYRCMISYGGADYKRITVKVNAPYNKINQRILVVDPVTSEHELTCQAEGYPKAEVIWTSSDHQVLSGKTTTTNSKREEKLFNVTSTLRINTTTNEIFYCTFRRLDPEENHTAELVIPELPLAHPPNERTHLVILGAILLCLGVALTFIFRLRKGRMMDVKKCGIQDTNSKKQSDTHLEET

Chain of human 4-1BB on Jurkat-hu4-1BB-NFκB-luc2 reporter cells (human) (Q07011 24-255): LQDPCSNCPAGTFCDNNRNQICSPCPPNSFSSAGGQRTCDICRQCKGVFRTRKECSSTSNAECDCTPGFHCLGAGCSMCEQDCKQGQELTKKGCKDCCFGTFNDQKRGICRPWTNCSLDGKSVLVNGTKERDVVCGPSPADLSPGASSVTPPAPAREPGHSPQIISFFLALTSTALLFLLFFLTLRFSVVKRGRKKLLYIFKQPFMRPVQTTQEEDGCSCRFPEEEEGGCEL

AUC of NFκB-activation-induced Luciferase activity curve [1]: 112
AUC [2]: 248
Substance: DP47 huIgG1 P329G LALA (antibody)
